We go through 1 molecule from PMC6497562 (Molecular cancer research : MCR, 2019).

The assay addresses neurofibromin (human (endogenous in 786-0 and RCC4), UniProt P21359-2 1-2818). Put plainly: co-IP.

B1: hypoxia-associated factor (HAF), endogenous (natural protein, human (endogenous in 786-0), UniProt O43290 1-800, looked up)
chain: MGSSKKHRGEKEAAGTTAAAGTGGATEQPPRHREHKKHKHRSGGSGGSGGERRKRSRERGGERGSGRRGAEAEARSSTHGRERSQAEPSERRVKREKRDDGYEAAASSKTSSGDASSLSIEETNKLRAKLGLKPLEVNAIKKEAGTKEEPVTADVINPMALRQREELREKLAAAKEKRLLNQKLGKIKTLGEDDPWLDDTAAWIERSRQLQKEKDLAEKRAKLLEEMDQEFGVSTLVEEEFGQRRQDLYSARDLQGLTVEHAIDSFREGETMILTLKDKGVLQEEEDVLVNVNLVDKERAEKNVELRKKKPDYLPYAEDESVDDLAQQKPRSILSKYDEELEGERPHSFRLEQGGTADGLRERELEEIRAKLRLQAQSLSTVGPRLASEYLTPEEMVTFKKTKRRVKKIRKKEKEVVVRADDLLPLGDQTQDGDFGSRLRGRGRRRVSEVEEEKEPVPQPLPSDDTRVENMDISDEEEGGAPPPGSPQVLEEDEAELELQKQLEKGRRLRQLQQLQQLRDSGEKVVEIVKKLESRQRGWEEDEDPERKGAIVFNATSEFCRTLGEIPTYGLAGNREEQEELMDFERDEERSANGGSESDGEENIGWSTVNLDEEKQQQDFSASSTTILDEEPIVNRGLAAALLLCQNKGLLETTVQKVARVKAPNKSLPSAVYCIEDKMAIDDKYSRREEYRGFTQDFKEKDGYKPDVKIEYVDETGRKLTPKEAFRQLSHRFHGKGSGKMKTERRMKKLDEEALLKKMSSSDTPLGTVALLQEKQKAQKTPYIVLSGSGKSMNANTITK
Take B1: the “fold increase of binding in hypoxia over normoxia” value is approximately 2 fold.
